# Test results from patent US20050222029A1 (MYRIAD GENETICS, published 2005).
# T1: Tumor Suppressor (TSG101) 231-391 (human, UniProt Q99816 231-390)
# T1 construct: bait (Gal4 DBD fusion)
# T1 sequence (looked up): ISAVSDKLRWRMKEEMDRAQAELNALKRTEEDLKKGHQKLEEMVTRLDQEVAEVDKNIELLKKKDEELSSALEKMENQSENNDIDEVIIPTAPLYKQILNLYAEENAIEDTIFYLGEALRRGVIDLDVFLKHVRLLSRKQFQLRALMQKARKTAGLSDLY
# T2: Tumor Suppressor (TSG101) 240-391 (human, UniProt Q99816 240-390)
# T2 construct: range 240-391; bait (Gal4 DBD fusion); also called TSG101 240-390
# T2 sequence (looked up): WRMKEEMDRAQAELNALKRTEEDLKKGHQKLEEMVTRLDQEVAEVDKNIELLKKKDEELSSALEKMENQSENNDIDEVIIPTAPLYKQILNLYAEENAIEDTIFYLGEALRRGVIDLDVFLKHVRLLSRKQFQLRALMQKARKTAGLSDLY
# T3: Tumor Suppressor (TSG101) 12-326 (human, UniProt Q99816 12-326)
# T3 construct: bait (Gal4 DBD fusion)
# T3 sequence (looked up): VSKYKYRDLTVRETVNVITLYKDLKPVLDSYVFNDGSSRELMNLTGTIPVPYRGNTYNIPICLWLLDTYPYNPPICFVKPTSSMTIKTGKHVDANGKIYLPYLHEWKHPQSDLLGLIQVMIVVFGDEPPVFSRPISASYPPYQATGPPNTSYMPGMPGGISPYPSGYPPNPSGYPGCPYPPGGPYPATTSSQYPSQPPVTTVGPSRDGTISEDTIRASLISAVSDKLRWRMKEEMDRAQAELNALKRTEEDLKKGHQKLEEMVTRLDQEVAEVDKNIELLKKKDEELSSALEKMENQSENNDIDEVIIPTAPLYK
# B1: GrpE-Like protein cochaperone (PN19062) 40-89 (other)
# chain: LEEDMGQSEQKADPPATEKTLLEEKVKLEEQLKETVEKYKRALADTENLR
# notes: prey (Gal4 AD-HA fusion); also called PN19062/HMGE; GRPEL1
# B2: Tropomyosin TM30pl (TPM4) 91-142 (other, human, UniProt P67936 91-142, looked up)
# chain: MKVIENRAMKDEEKMEIQEMQLKEAKHIAEEADRKYEEVARKLVILEGELER
# notes: prey (Gal4 AD-HA fusion)
# B3: Chromosome-associated polypeptide HCAP (HCAP) 208-300 (other, human, UniProt Q9UQE7 208-300, looked up)
# chain: EELAQYQKWDKMRRALEYTIYNQELNETRAKLDELSAKRETSGEKSRQLRDAQQDARDKMEDIERQVRELKTKISAMKEEKEQLSAERQEQIK
# notes: prey (Gal4 AD-HA fusion)
# B4: Tropomyosin TM30pl (TPM4) 79-142 (other, human, UniProt P67936 79-142, looked up)
# chain: EAEKAADESERGMKVIENRAMKDEEKMEIQEMQLKEAKHIAEEADRKYEEVARKLVILEGELER
# notes: prey (Gal4 AD-HA fusion)
# B5: Zink finger protein 231 (ZNF231) 2308-2438 (other, human, UniProt Q9UPA5 2308-2438, looked up)
# chain: EEPLPTTTPAAIKEAAGAPAPAPLAGQKPPADAAPGGGSGALSRPGFEKEEASQEERQRKQQEQLLQLERERVELEKLRQLRLQEELERERVELQRHREEEQLLVQRELQELQTIKHHVLQQQQEERQAQF
# notes: prey (Gal4 AD-HA fusion)
# B6: Rho-associated (ROCK1) 462-617 (enzyme, human, UniProt Q13464 462-617, looked up)
# chain: KIMKELDEEGNQRRNLESTVSQIEKEKMLLQHRINEYQRKAEQENEKRRNVENEVSTLKDQLEDLKKVSQNSQLANEKLSQLQKQLEEANDLLRTESDTAVRLRKSHTEMSKSISQLESLNRELQERNRILENSKSQTDKDYYQLQAILEAERRDR
# notes: prey (Gal4 AD-HA fusion); also called ROK; p160
# B7: Keratin 5 335-473 (other, human, UniProt P13647 335-473, looked up)
# chain: LDSIIAEVKAQYEEIANRSRTEAESWYQTKYEELQQTAGRHGDDLRNTKHEISEMNRMIQRLRAEIDNVKKQCANLQNAIADAEQRGELALKDARNKLAELEEALQKAKQDMARLLREYQELMNTKLALDVEIATYRKL
# notes: prey (Gal4 AD-HA fusion)
# B8: GTPase-activiating protein 1 1404-1553 (other, human, UniProt P46940 1404-1553, looked up)
# chain: LTEILETPATSEQEAEHQRAMQRRAIRDAKTPDKMKKSKSVKEDSNLTLQEKKEKIQTGLKKLTELGTVDPKNKYQELINDIARDIRNQRRYRQRRKAELVKLQQTYAALNSKATFYGEQVDYYKSYIKTCLDNLASKGKVSKKPREMKG
# notes: prey (Gal4 AD-HA fusion); also called IQGAP1; IQGAP
# B9: GTPase-activiating protein 1 1439-1567 (other, human, UniProt P46940 1439-1567, looked up)
# chain: KKSKSVKEDSNLTLQEKKEKIQTGLKKLTELGTVDPKNKYQELINDIARDIRNQRRYRQRRKAELVKLQQTYAALNSKATFYGEQVDYYKSYIKTCLDNLASKGKVSKKPREMKGKKSKKISLKYTAAR
# notes: as for B8
# B10: GTPase-activiating protein 1 1439-1565 (other, human, UniProt P46940 1439-1565, looked up)
# chain: KKSKSVKEDSNLTLQEKKEKIQTGLKKLTELGTVDPKNKYQELINDIARDIRNQRRYRQRRKAELVKLQQTYAALNSKATFYGEQVDYYKSYIKTCLDNLASKGKVSKKPREMKGKKSKKISLKYTA
# notes: as for B8
# B11: Mitotic spindle coiled-coil related protein 942-1021 (other, human, UniProt Q96R06 942-1021, looked up)
# chain: LGSDKSAFTRVASMVSLQPAETPGMEESLAEMSIMTTELQSLCSLLQESKEEAIRTLQRKICELQARLQAQEEQHQEVQK
# notes: prey (Gal4 AD-HA fusion)
# B12: Keratin 8 293-394 (other, human, UniProt P05787 293-394, looked up)
# chain: AGKHGDDLRRTKTEISEMNRNISRLQAEIEGLKGQRASLEAAIADAEQRGELAIKDANAKLSELEAALQRAKQDMARQLREYQELMNVKLALDIEIATYRKL
# notes: prey (Gal4 AD-HA fusion)
# B13: GTPase-activiating protein 1 1463-1568 (other, human, UniProt P46940 1463-1568, looked up)
# chain: LKKLTELGTVDPKNKYQELINDIARDIRNQRRYRQRRKAELVKLQQTYAALNSKATFYGEQVDYYKSYIKTCLDNLASKGKVSKKPREMKGKKSKKISLKYTAARL
# notes: as for B8
# B14: Keratin 5 349-475 (other, human, UniProt P13647 349-475, looked up)
# chain: IANRSRTEAESWYQTKYEELQQTAGRHGDDLRNTKHEISEMNRMIQRLRAEIDNVKKQCANLQNAIADAEQRGELALKDARNKLAELEEALQKAKQDMARLLREYQELMNTKLALDVEIATYRKLLE
# notes: prey (Gal4 AD-HA fusion)
# B15: Intersection 1 437-584 (other, human, UniProt Q15811 437-584, looked up)
# chain: AKRELERQRQLEWERNRRQELLNQRNKEQEDIVVLKAKKKTLEFELEALNDKKHQLEGKLQDIRCRLTTQRQEIESTNKSRELRIAEITHLQQQLQESQQMLGRLIPEKQILNDQLKQVQQNSLHRDSLVTLKRALEAKELARQHLRD
# notes: prey (Gal4 AD-HA fusion); also called Intersectin 1; ITSN1
# B16: Keratin 5 347-485 (other, human, UniProt P13647 347-485, looked up)
# chain: EEIANRSRTEAESWYQTKYEELQQTAGRHGDDLRNTKHEISEMNRMIQRLRAEIDNVKKQCANLQNAIADAEQRGELALKDARNKLAELEEALQKAKQDMARLLREYQELMNTKLALDVEIATYRKLLEGEECRLSGEG
# notes: prey (Gal4 AD-HA fusion)
# B17: Keratin 5 325-446 (other, human, UniProt P13647 325-446, looked up)
# chain: LSMDNNRNLDLDSIIAEVKAQYEEIANRSRTEAESWYQTKYEELQQTAGRHGDDLRNTKHEISEMNRMIQRLRAEIDNVKKQCANLQNAIADAEQRGELALKDARNKLAELEEALQKAKQDM
# notes: prey (Gal4 AD-HA fusion)
# B18: Keratin 5 379-452 (other, human, UniProt P13647 379-452, looked up)
# chain: LRNTKHEISEMNRMIQRLRAEIDNVKKQCANLQNAIADAEQRGELALKDARNKLAELEEALQKAKQDMARLLRE
# notes: prey (Gal4 AD-HA fusion)
# B19: Keratin 5 384-475 (other, human, UniProt P13647 384-475, looked up)
# chain: HEISEMNRMIQRLRAEIDNVKKQCANLQNAIADAEQRGELALKDARNKLAELEEALQKAKQDMARLLREYQELMNTKLALDVEIATYRKLLE
# notes: prey (Gal4 AD-HA fusion)
# B20: Intersection 1 436-547 (other, human, UniProt Q15811 436-547, looked up)
# chain: AAKRELERQRQLEWERNRRQELLNQRNKEQEDIVVLKAKKKTLEFELEALNDKKHQLEGKLQDIRCRLTTQRQEIESTNKSRELRIAEITHLQQQLQESQQMLGRLIPEKQI
# notes: as for B15
# B21: GTPase-activiating protein 1 1406-1547 (other, human, UniProt P46940 1406-1547, looked up)
# chain: EILETPATSEQEAEHQRAMQRRAIRDAKTPDKMKKSKSVKEDSNLTLQEKKEKIQTGLKKLTELGTVDPKNKYQELINDIARDIRNQRRYRQRRKAELVKLQQTYAALNSKATFYGEQVDYYKSYIKTCLDNLASKGKVSKK
# notes: as for B8
# B22: Accessory proteins BAP31/BAP29 (BAP31) 184-246 (other, human, UniProt P51572 184-246, looked up)
# chain: LKADLQKLKDELASTKQKLEKAENQVLAMRKQSEGLTKEYDRLLEEHAKLQAAVDGPMDKKEE
# notes: prey (Gal4 AD-HA fusion)
# B23: Kinesin Family Member 5A (KIF5A) 564-725 (other, human, UniProt Q12840 564-725, looked up)
# chain: IVGNGEIKLPVEISGAIEEEFTVARLYISKIKSEVKSVVKRCRQLENLQVECHRKMEVTGRELSSCQLLISQHEAKIRSLTEYMQSVELKKRHLEESYDSLSDELAKLQAQETVHEVALKDKEPDTQDADEVKKALELQMESHREAHHRQLARLRDEINEKQ
# notes: prey (Gal4 AD-HA fusion)
# B24: Golgi autoantigen (Golgin-84) 198-501 (other, human, UniProt Q8TBA6 198-501, looked up)
# chain: SKENVSSNAACPDHTPTPNDDGKSHELSNLRLENQLLRNEVQSLNQEMASLLQRSKETQEELNKARARVEKWNADHSKSDRMTRGLRAQVDDLTEAVAAKDSQLAVLKVRLQEADQLLSTRTEALEALQSEKSRIMQDQSEGNSLQNQALQTFQERLHEADATLKREQESYKQMQSEFAARLNKVEMERQNLAEAITLAERKYSDEKKRVDELQQQVKLYKLNLESSKQELIDYKQKATRILQSKEKLINSLKEGSGFEGLDSSTASSMELEELRHEKEMQREEIQKLMGQIHQLRSELQDMEA
# notes: prey (Gal4 AD-HA fusion)
# B25: Golgi autoantigen (Golgin-84) 198-497 (other, human, UniProt Q8TBA6 198-497, looked up)
# chain: SKENVSSNAACPDHTPTPNDDGKSHELSNLRLENQLLRNEVQSLNQEMASLLQRSKETQEELNKARARVEKWNADHSKSDRMTRGLRAQVDDLTEAVAAKDSQLAVLKVRLQEADQLLSTRTEALEALQSEKSRIMQDQSEGNSLQNQALQTFQERLHEADATLKREQESYKQMQSEFAARLNKVEMERQNLAEAITLAERKYSDEKKRVDELQQQVKLYKLNLESSKQELIDYKQKATRILQSKEKLINSLKEGSGFEGLDSSTASSMELEELRHEKEMQREEIQKLMGQIHQLRSELQ
# notes: prey (Gal4 AD-HA fusion)
# B26: novel protein PN9667 268-422 (other)
# chain: KAKEKEVEKIEQNGLALIQNKKEDVSSIVMSTLRELGQTWANLDHMVGQLKILLKSVLDQWSSHKVAFDKINSYLMEARYSLSRFRLLTGSLEAVQVQVDNLQNLQDDLEKQERSLQKFGSITNQLLKECHPPVTETLTNTLKEVNMRWNNLLEE
# notes: prey (Gal4 AD-HA fusion)
# Biological target: T1, Tumor Suppressor (TSG101) 231-391
# Test: yeast two-hybrid
row,binding result,Binder
1,binds,B1
2,binds,B2
3,binds,B3
4,binds,B4
5,binds,B5
6,binds,B6

# Biological target: T2, Tumor Suppressor (TSG101) 240-391
# Test: yeast two-hybrid
row,binding result,Binder
1,binds,B7
2,binds,B8
3,binds,B9
4,binds,B10
5,binds,B11
6,binds,B12
7,binds,B13
8,binds,B14
9,binds,B15
10,binds,B16
11,binds,B17
12,binds,B18
13,binds,B19
14,binds,B20
15,binds,B21

# Biological target: T3, Tumor Suppressor (TSG101) 12-326
# Test: yeast two-hybrid
row,binding result,Binder
1,binds,B22
2,binds,B23
3,binds,B24
4,binds,B25
5,binds,B26
